# Target: T1, EGFR on the surface of human tumour cells (A431, H292) (human, UniProt P00533 25-1210)
# Test: cell-based or functional assay
row,"% inhibition of EGFR phosphorylation at 100 nM binder, cell-based assay",Binder
1,84.7%,E99 (designed binder) 10Fn3 domain: MGVSDVPRDLEVVAATPTSLLISWDAPTSRYQYYRITYGETGGNSPVQEFTVPGGVRTATISGLKPGVDYTITVYAVTDYKPHADGPHTYHEYPISINYRTEIDKPSQ
2,86.2%,E112 (designed binder) 10Fn3 domain: MGVSDVPRDLEVVAATPTSLLISWDAGAVTYQYYRITYGETGGNSPVQEFTVPGGVRTATISGLKPGVDYTITVYAVTDYKPHADGPHTYHEYPISINYRTEIDKPSQ
3,80%,E108 (designed binder) 10Fn3 domain: MGVSDVPRDLEVVAATPTSLLISWDAPAVTYQYYRITYGETGGNSPVQEFTVPGGVRTATISGLKPGVDYTITVYAVTDYKPHADGPHTYHESPISINYRTEIDKPSQ
4,81.3%,E110 (designed binder) 10Fn3 domain: MGVSDVPRDLEVVAATPTSLLISWDAGAVTYQYYRITYGETGGNSPVQEFTVPGGVRTATISGLKPGVDYTITVYAVTDYKPHADGPHTYHESPISINYRTEIDKPSQ
5,87%,E105 (designed binder) 10Fn3 domain: MGVSDVPRDLEVVAATPTSLLISWDAPTSRYQYYRITYGETGGNSPVQEFTVPGGLSTATISGLKPGVDYTITVYAVTDYKPHADGPHTYHESPISINYRTEIDKPSQ
6,76.3%,E103 (designed binder) 10Fn3 domain: MGVSDVPRDLEVVAATPTSLLISWTPANKSYQYYRITYGETGGNSPVQEFTVPGGVRTATISGLKPGVDYTITVYAVTNMMHVEYSEYPISINYRTEIDKPSQ
7,85.5%,E111 (designed binder) 10Fn3 domain: MGVSDVPRDLEVVAATPTSLLISWDAPTSRYQYYRITYGETGGNSPVQEFTVPHDLVTATISGLKPGVDYTITVYAVTNMMHVEYSEYPISINYRTEIDKPSQ
8,75.8%,E107 (designed binder) 10Fn3 domain: MGVSDVPRDLEVVAATPTSLLISWDSGRGSYQYYRITYGETGGNSPVQEFTVPYDVYTATISGLKPGVDYTITVYAVTDMMHVEYTEHPISINYRTEIDKPSQH
9,83.3%,E100 (designed binder) 10Fn3 domain: MGVSDVPRDLEVVAATPTSLLISWTPANKSYQYYRITYGETGGNSPVQEFTVPHDLVTATISGLKPGVDYTITVYAVTDHKPHADGPHTYHEYPISINYRTEIDKPSQ
10,80%,E102 (designed binder) 10Fn3 domain: MGVSDVPRDLEVVAATPTSLLISWTPANKSYQYYRITYGETGGNSPVQEFTVPHDLVTATISGLKPGVDYTITVYAVTDHKPHADGPHTYHESPISINYRTEIDKPSQ
11,89.3%,E104 (designed binder) 10Fn3 domain: MGVSDVPRDLEVVAATPTSLLISWDAGAVTYQYYRITYGETGGNSPVQEFTVPHDLVTATISGLKPGVDYTITVYAVTDHKPHADGPHTYHEYPISINYRTEIDKPSQ
12,84%,E106 (designed binder) 10Fn3 domain: MGVSDVPRDLEVVAATPTSLLISWDAPAVTYQYYRITYGETGGNSPVQEFTVPYDVYTATISGLKPGVDYTITVYAVTDYKPHADGPHTYHEYPISINYRTEIDKPSQ
13,90.9%,E101 (designed binder) 10Fn3 domain: MGVSDVPRDLEVVAATPTSLLISWDAPAVTYQYYRITYGETGGNSPVQEFTVPHDLVTATISGLKPGVDYTITVYAVTDYKPHADGPHTYHESPISINYRTEIDKPSQ
14,90.9%,E109 (designed binder) 10Fn3 domain: MGVSDVPRDLEVVAATPTSLLISWDAPTSRYQYYRITYGETGGNSPVQEFTVPHDLVTATISGLKPGVDYTITVYAVTDYKPHADGPHTYHESPISINYRTEIDKPSQ

# Target: T1, EGFR on the surface of human tumour …
# Test: cell-based or functional assay
# Remark: another data set of the same source
row,Binder,"% inhibition of EGFR phosphorylation at 100 nM binder, cell-based assay"
1,E82 (designed binder) 10Fn3 domain: MGVSDVPRDLEVVAATPTSLLISWRVLVDMYQYYRITYGETGGNSPVQEFTVPGGVLTATISGLKPGVDYTITVYAVTDYKPHVDGPHTYYESPISINYRTEIDKPSQ,77.2%
2,E77 (designed binder) 10Fn3 domain: MGVSDVPRDLEVVAATPTSLLISWSSATRPYQYYRITYGETGGNSPVQEFTVPGGVRTATISGLKPGVDYTITVYAVTDFFNPTTHEYYYHTTPISINYRTEIDKPSQ,81.1%
3,E78 (designed binder) 10Fn3 domain: MGVSDVPRDLEVVAATPTSLLISWSVERSVYQYYRITYGETGGNSPVQEFTVPGGVRTATISGLKPGVDYTITVYAVTDYYNPSTHEYNYLTTPISINYRTEIDKPSQ,76.9%
4,E80 (designed binder) 10Fn3 domain: MGVSDVPRDLEVVAATPTSLLISWSSSHRRYQYYRITYGETGGNSPVQEFTVPGSVATATISGLKPGVDYTITVYAVTDYFNPDTHEYLYHATPISINYRTEIDKPSQ,89.6%
5,E4 (designed binder) 10Fn3 domain: MGVSDVPRDLEVVAATPTSLLISWHERDGSRQYYRITYGETGGNSPVQEFTVPGGVRTATISGLKPGVDYTITVYAVTDYFNPTTHEYIYQTTPISINYRTEIDKPSQ,94.3%
6,E83 (designed binder) 10Fn3 domain: MGVSDVPRDLEVVAATPTSLLISWMFVGMSYQYYRITYGETGGNSPVQEFTVPYGVHTATISGLKPGVDYTITVYAVTDYFNPATHEYIYHVTPISINYRTEIDKPSQ,90.7%
7,E79 (designed binder) 10Fn3 domain: MGVSDVPRDLEVVAATPTSLLISWQDTSSYHQYYRITYGETGGNSPVQEFTVPGGVRTATISGLKPGVDYTITVYAVTDYFNPSTHEYIYRTIPISINYRTEIDKPSQ,99.2%
8,E81 (designed binder) 10Fn3 domain: MGVSDVPRDLEVVAATPTSLLISWDNNSNSYQYYRITYGETGGNSPVQEFTVPYDLRTATISGLKPGVDYTITVYAVTDYKPHTEGEHTYHESPISINYRTEIDKPSQ,75.1%

# Continued, values first:
row,"% inhibition of EGFR phosphorylation at 100 nM binder, cell-based assay",Binder
1,86.5%,E84 (designed binder) 10Fn3 domain: MGVSDVPRDLEVVAATPTSLLISWTLHRKNYQYYRITYGETGGNSPVQEFTVPGGVVTATISGLKPGVDYTITVYAVTDYYNPATHEYDYRTTPISINYRTEIDKPSQ
2,89.3%,E85 (designed binder) 10Fn3 domain: MGVSDVPRDLEVVAATPTSLLISWTQGSTHYQYYRITYGETGGNSPVQEFTVPGMVYTATISGLKPGVDYTITVYAVTDYFDRSTHEYKYRTTPISINYRTEIDKPSQ

# Target: T1, EGFR on the surface of human tumour …
# Test: cell-based or functional assay
# Remark: another data set of the same source
row,"% inhibition of EGFR phosphorylation at 100 nM binder, cell-based assay",Binder
1,80%,E6 (designed binder) 10Fn3 domain: MGVSDVPRDLEVVAATPTSLLISWQVPRPMYQYYRITYGETGGNSPVQEFTVPYDVYTATISGLKPGVDYTITVYAVTDSYNPATHEYKYHQTPISINYRTEIDKPSQ
2,89.4%,E7 (designed binder) 10Fn3 domain: MGVSDVPRDLEVVAATPTSLLISWQVPRPMYQYYRITYGETGGNSPVQEFTVPYDVHTATISGLKPGVDYTITVYAVTDSYNPATHEYKYHQTPISINYRTEIDKPSQ
3,76.5%,E12 (designed binder) 10Fn3 domain: MGVSDVPRDLEVVAATPTSLLISWQVPRPMYQYYRITYGETGGNSPVQEFTVPHDVYTATISGLKPGVDYTITVYAVTDSYNPATHEYKYHQTPISINYRTEIDKPSQ
4,86.7%,E13 (designed binder) 10Fn3 domain: MGVSDVPRDLEVVAATPTSLLISWQVPRPMYQYYRITYGETGGNSPVQEFTVPGQVYTATISGLKPGVDYTITVYAVTDSYNPATHEYKYHQTPISINYRTEIDKPSQ
5,92.4%,E8 (designed binder) 10Fn3 domain: MGVSDVPRDLEVVAATPTSLLISWQVPRPMYQYYRITYGETGGNSPVQEFTVPYDLTTATISGLKPGVDYTITVYAVTDSYNPATHEYKYHQTPISINYRTEIDKPSQ
6,77.3%,E9 (designed binder) 10Fn3 domain: MGVSDVPRDLEVVAATPTSLLISWEANPSRYQYYRITYGETGGNSPVQEFTVPHDLNTATISGLKPGVDYTITVYAVTDSYNPATHEYKYHQTPISINYRTEIDKPSQ
7,84.7%,E10 (designed binder) 10Fn3 domain: MGVSDVPRDLEVVAATPTSLLISWYPGSRTYQYYRITYGETGGNSPVQEFTVPGGVRTATISGLKPGVDYTITVYAVTDYYHPATYEHEYHAHPISINYRTEIDKPSQ
8,83.7%,E11 (designed binder) 10Fn3 domain: MGVSDVPRDLEVVAATPTSLLISWTPANKSYQYYRITYGETGGNSPVQEFTVPYDGTTATISGLKPGVDYTITVYAVTDHKPHADGPHTYHEYPISINYRTEIDKPSQ
